Test results from paper PMC10343166, “Structure of puromycin-sensitive aminopeptidase and polyglutamine binding” (PLOS ONE, 2023).

Assays:
[1] = target: T1, Puromycin-sensitive aminopeptidase F433A mutant, with C-terminal polyhistidine sequence (human, UniProt P55786 1-919, F433A); assay: competitive inhibition of enzyme activity (Dixon plots); apparent Ki from inhibition of Ala-4MβNA cleavage at increasing peptide concentrations; 20 mM HEPES pH 7.0, 2 mM BME, 37°C; 20 μM (PSA^wt) or 100 μM (PSA^F433A) Ala-4MβNA; triplicate; details: both partners purified
T1 construct: Human puromycin-sensitive aminopeptidase (PSA, NPEPPS), UniProt P55786, with F433A; also called PSA^F433A

[2] = target: T2, Puromycin-sensitive aminopeptidase, wild type, with C-terminal polyhistidine sequence (kinetic studies) (human, UniProt P55786 1-919); assay: as above; details: both partners purified
T2 construct: Human puromycin-sensitive aminopeptidase (PSA, NPEPPS), UniProt P55786; also called PSA^wt; wild type PSA
T2 sequence (P55786 whole entry): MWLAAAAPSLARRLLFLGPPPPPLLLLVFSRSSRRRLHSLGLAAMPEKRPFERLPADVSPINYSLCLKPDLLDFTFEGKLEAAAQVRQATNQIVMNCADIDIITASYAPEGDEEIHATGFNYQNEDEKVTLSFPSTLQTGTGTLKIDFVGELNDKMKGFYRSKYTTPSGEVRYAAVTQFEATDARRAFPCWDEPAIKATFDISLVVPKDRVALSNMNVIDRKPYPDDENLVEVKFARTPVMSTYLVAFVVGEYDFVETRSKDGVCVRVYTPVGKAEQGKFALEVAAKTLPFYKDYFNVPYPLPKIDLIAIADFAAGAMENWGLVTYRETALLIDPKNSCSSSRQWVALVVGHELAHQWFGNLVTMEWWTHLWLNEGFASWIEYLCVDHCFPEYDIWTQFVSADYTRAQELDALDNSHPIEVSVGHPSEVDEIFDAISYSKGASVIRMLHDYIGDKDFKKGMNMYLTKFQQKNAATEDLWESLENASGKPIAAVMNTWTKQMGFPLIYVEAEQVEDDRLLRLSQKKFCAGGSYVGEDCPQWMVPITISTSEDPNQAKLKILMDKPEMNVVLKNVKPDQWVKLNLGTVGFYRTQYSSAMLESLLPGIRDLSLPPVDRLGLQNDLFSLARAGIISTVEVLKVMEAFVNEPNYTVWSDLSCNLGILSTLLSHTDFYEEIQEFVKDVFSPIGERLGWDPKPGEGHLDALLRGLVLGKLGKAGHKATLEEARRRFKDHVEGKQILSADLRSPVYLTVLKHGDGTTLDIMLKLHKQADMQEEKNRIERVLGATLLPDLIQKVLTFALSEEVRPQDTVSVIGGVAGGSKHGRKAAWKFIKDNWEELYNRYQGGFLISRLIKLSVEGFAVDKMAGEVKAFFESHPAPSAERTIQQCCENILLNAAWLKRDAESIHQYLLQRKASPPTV

T1 sequence (P55786 whole entry F433A): as the sequence (P55786 whole entry) above, with F433A counted along it

Ki [1]: 4.9 µM
Ki [2]: 1.3 µM
B1: Polyglutamine peptide Lys2Gln15Lys2 (peptide)
peptide: KKQQQQQQQQQQQQQQQKK
notes: Printed as Lys2Gln15Lys2 (19-mer); In PDB 8SW1 only 6 residues are modelled, deposited as polyalanine; also called PQ; PQ peptide; source: synthetic peptide, bought: Peptidogenic Research and Co; purified (TFA/hexafluoro-2-propanol, centrifugation)
